Measurements taken from patent US20250129166A1.

Target: full length human PSGL-1 (SEQ ID NO: 3) expressed on heparan sulfate-mutant CHO cells (human) (UniProt Q14242)
Assay: blocking of VISTA-Fc binding to CHO-PSGL-1 cells (the blocked ligand is VISTA-Fc); cells pre-incubated with antibody and read by flow cytometry or HTRF

Chain of full length human PSGL-1 (SEQ ID NO: 3) expressed on heparan sulfate-mutant CHO cells (human) (Q14242 42-412 limits assumed, change not shown): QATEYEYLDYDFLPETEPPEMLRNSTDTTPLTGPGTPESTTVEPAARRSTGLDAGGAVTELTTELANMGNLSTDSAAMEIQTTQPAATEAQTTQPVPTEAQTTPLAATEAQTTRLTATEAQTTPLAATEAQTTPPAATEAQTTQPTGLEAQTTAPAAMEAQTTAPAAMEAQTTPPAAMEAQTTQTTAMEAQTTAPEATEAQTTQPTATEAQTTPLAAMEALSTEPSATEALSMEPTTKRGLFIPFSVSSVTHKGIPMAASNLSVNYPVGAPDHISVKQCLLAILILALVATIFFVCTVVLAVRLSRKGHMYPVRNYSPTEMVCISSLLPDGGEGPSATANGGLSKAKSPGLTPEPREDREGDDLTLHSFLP

In the case of “anti-PSGL-1 antibody KPL-1 (BD Biosciences or Biolegend)”, the IC50 (read off the curve) is reported as 60 ng/mL.
